Data set [1] can be described thus: amine oxidase activity in vitro of renalase isolated from blood and urine. The data set is classed as biochemical, human. As to conditions: basal conditions. An excerpt: We have tested renalase isolated from blood and urine.
Data set [2] is described as follows: infusion of recombinant renalase into rats. The data set is classed as in vivo.
Data set [3] is described as follows: blood pressure and heart rate in conscious mice. The data set is classed as in vivo. On the procedure:
We also tested the effect of renalase on blood pressure and heart rate in conscious mice. Recombinant renalase was prepared using the method described in Example 3 of PCT/US05/009248, which is specifically and completely incorporated herein by reference. As explained in more detail therein, the recombinant protein made in E. coli as used in the examples herein is refolded before administration. Thus, the recombinant renalase protein as used herein is in the active form (i.e., it is active renalase as defined above).
The recombinant protein was given by tail vein injection (100 μg) or retroorbital injection (1 mg) and ambulatory blood pressure and heart rates were measured continuously for 24 hours.

Data set [4] has as its system isolated perfused mouse heart. Briefly: isolated perfused mouse heart model of ischemia-reperfusion. The source says: Since renalase can metabolize catecholamines, we tested whether it could protect against ischemic myocardial damage.

“Also recorded” adds a separate entry of the source.

B1: protein isolated from human blood: native renalase isolated from human blood under basal conditions (protein, UniProt Q5VYX0 18-342, looked up)
Renalase: ALLRRQTSGPLYLAVWDKAEDSGGRMTTACSPHNPQCTADLGAQYITCTPHYAKKHQRFYDELLAYGVLRPLSSPIEGMVMKEGDCNFVAPQGISSIIKHYLKESGAEVYFRHRVTQINLRDDKWEVSKQTGSPEQFDLIVLTMPVPEILQLQGDITTLISECQRQQLEAVSYSSRYALGLFYEAGTKIDVPWAGQYITSNPCIRFVSIDNKKRNIESSEIGPSLVIHTTVPFGVTYLEHSIEDVQELVFQQLENILPGLPQPIATKCQKWRHSQVTNAAANCPGQMTLHHKPFLACGGDGFTQSNFDGCITSALCVLEALKNYI
Turning to B1, the “amine oxidase activity in vitro” value in data set [1] is “no significant amine oxidase activity”.

B2: renalase isolated from human urine: native renalase isolated from human urine (protein, UniProt Q5VYX0 18-342, looked up)
Renalase: B1 Renalase
For the molecule B2, the “amine oxidase activity in vitro” value in data set [1] is “metabolizes catecholamines”.

B3: renalase: recombinant renalase protein made in E. coli, refolded before administration; secreted FAD-containing monoamine oxidase of the kidney (protein)
chain: ALLRKEITAPLYLALWDKAGDIGGRMTTANSPHNPRCTADLGAQYITCTPHYAKKHQNFYEELLAHGILEPLTSPIKGMEVKEGESNFVAPHGVSSIIKYYLKESGAEVFLRQCVTQINLRDNKWEVSEDTGSTQQFDLVILTMPAPQILGLQGDIVNLISERQRQQLASVSYSSRYALGLFYEAGMKIDVPWAGQYITSNPCIRFISIDSKKRNTESSECGPLLVVHTTVPFGVTHLEHSEEDVQELITQQLETILPGLPPPVATKCWKWRYSQVTNSAANSPGQMTLHLNPFLIYI
As to B3, the blood pressure result in data set [2] was “reduction”; in data set [3] (1 mg by retroorbital injection), “significant and long-lasting fall”; in data set [3] (continuous infusion by tail vein, 20 μg/minute, during the period of infusion), “reduction in blood pressure”. Moreover, the heart rate result in data set [2] was “lower”; in data set [3] (100 μg by tail injection, for several hours) it was “significantly increased”; in data set [3] (1 mg by retroorbital injection), “significant and long-lasting fall”. Further, in data set [3] (100 μg by tail injection), the mean blood pressure result was “remained unchanged”. Also, the “minute-to-minute variability in blood pressure” value in data set [3] (100 μg by tail injection, conscious mice) was “decreased”. Also, the “reversibility of the blood pressure effect” value in data set [3] (continuous IV infusion, after stopping) is recorded as “reversible”. Besides, in data set [4] (infusion from 10 minutes before 15 min global ischemia until 2 hours after reperfusion, versus control protein glutathione synthase), the “myocardial (left ventricular) function” value is on record as “preserved myocardial function significantly better; also recorded: preserves left ventrical (LV) function”. The “decrease of myocardial necrosis” value in data set [4] (ischemia-reperfusion, n=3, p<0.001) is 54%.
